No end group written: not given here.
Legend:
Assay in all cases: cell-based or functional assay
[1] = biological target: CLdes CXCR4 sensor (Cdes2 design combined with H113N) (human)
[2] = biological target: Ldes CXCR4 (library-selected combination receptor variant) (human)
Cdes2 CXCR4 design = Cdes2 CXCR4 design (human)

Gi response (potency/sensitivity) [1]: > 9 fold over WT | Gi potency [2]: ~11 fold over CXCR4 WT scaffold | potency in G-coupling (Gi BRET) (Cdes2 CXCR4 design): 3.2 fold over WT | potency in calcium mobilization (Cdes2 CXCR4 design): 3.1 fold over WT
B1: CXCL12 1-17 peptide, wild-type (17 N-terminal residues of CXCL12) (peptide)
peptide: KPVSLSYRCPCRFFESH-NH2
modifications: cysteine pairing not given here
